Reference: paper PMC4742958, “NuSAP governs chromosome oscillation by facilitating the Kid-generated polar ejection force” (Nature Communications, 2016)

Biological target: T1, glutathione S-transferase (GST)-tagged Kid recombinant protein (human, UniProt Q14807 1-665)
T1 construct: cDNA amplified from a cDNA library extracted from HEK 293T cells, inserted into pGEX-4T-1; Vector pGEX-4T-1; The discussion calls the Kid of the gliding assay (Kid-GFP-His, another construct) full-length; nothing is said of the limits of GST-Kid; also called GST-Kid; source: E. coli BL21 (DE3) pLysS, purified (glutathione-Sepharose 4B)
T1 sequence (looked up): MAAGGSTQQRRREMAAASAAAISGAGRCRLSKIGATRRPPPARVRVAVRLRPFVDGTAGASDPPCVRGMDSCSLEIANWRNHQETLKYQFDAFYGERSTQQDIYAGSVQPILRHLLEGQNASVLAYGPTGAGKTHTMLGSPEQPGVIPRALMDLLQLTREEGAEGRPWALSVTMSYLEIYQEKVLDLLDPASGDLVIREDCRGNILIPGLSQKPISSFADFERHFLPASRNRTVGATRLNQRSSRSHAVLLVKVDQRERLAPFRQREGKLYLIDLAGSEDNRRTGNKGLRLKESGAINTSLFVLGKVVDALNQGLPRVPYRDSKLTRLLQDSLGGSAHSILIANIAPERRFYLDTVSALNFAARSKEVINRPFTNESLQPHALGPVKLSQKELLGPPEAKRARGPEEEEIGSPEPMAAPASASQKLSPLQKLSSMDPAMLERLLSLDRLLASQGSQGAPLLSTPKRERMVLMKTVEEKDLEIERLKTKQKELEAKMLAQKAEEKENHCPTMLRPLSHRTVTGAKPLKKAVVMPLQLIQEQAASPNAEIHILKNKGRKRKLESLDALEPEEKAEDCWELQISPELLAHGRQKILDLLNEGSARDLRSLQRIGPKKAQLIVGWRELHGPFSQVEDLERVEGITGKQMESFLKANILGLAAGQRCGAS
Experiment: pull-down; GST or GST-Kid (2 μg) on glutathione beads with 2 μg purified His-NuSAP; 50 mM Tris-HCl pH 7.0, 150 mM NaCl, 1 mM EGTA, 0.5% Triton X-100; 3 h at 4 °C; NuSAP blotted with anti-NuSAP antibody
Conditions: both partners purified

B1: His-tagged NuSAP recombinant protein (natural protein, human (cDNA library from HEK 293T cells), UniProt Q9BXS6 1-441, looked up)
chain: MIIPSLEELDSLKYSDLQNLAKSLGLRANLRATKLLKALKGYIKHEARKGNENQDESQTSASSCDETEIQISNQEEAERQPLGHVTKTRRRCKTVRVDPDSQQNHSEIKISNPTEFQNHEKQESQDLRATAKVPSPPDEHQEAENAVSSGNRDSKVPSEGKKSLYTDESSKPGKNKRTAITTPNFKKLHEAHFKEMESIDQYIERKKKHFEEHNSMNELKQQPINKGGVRTPVPPRGRLSVASTPISQRRSQGRSCGPASQSTLGLKGSLKRSAISAAKTGVRFSAATKDNEHKRSLTKTPARKSAHVTVSGGTPKGEAVLGTHKLKTITGNSAAVITPFKLTTEATQTPVSNKKPVFDLKASLSRPLNYEPHKGKLKPWGQSKENNYLNQHVNRINFYKKTYKQPHLQTKEEQRKKREQERKEKKAKVLGMRRGLILAED
notes: NuSAP; cDNA amplified from a cDNA library extracted from HEK 293T cells, inserted into pET28b; Vector pET28b; also called His-NuSAP; source: E. coli BL21 (DE3) pLysS, purified (Ni-NTA agarose)
B1: binds.
